Assay results as given in the supplement of paper PMC10724198.
± gives the standard deviation of the averaged measurements.

Test system: Saccharomyces cerevisiae
Assay: protein stability index of tFT-peptide fusion (C-terminal peptide) (PSI (0-1 scale)); higher = more stable (slower turnover)
Details: genetic background: wild type; temperature: 30 C
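Note: PSI is a weighted mean of sequencing reads over stability bins, variants kept only with over 10 reads, mCherry proximal and sfGFP distal, peptide attached via GGGS linker.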

| Sequence | protein stability index |
| --- | --- |
| LPLPIPPFPCPP | 0.686 ± 0.017 |
| PGCGVGSPARAE | 0.712 ± 0.032 |
| LCSPSPPCPRLP | 0.748 ± 0.025 |
| RRDIIMTKKTLH | 0.658 ± 0.069 |
| VVPSMFPGAEVL | 0.691 ± 0.026 |
| RVSTIEAEINLR | 0.708 ± 0.012 |
| VMGAGGGSRSRV | 0.677 ± 0.037 |
| GGGGSRWAGPRC | 0.636 ± 0.031 |
| NQPPFPLRRPPT | 0.699 ± 0.048 |
| VSCGVSEGDVVC | 0.675 ± 0.031 |
| SPPRPPRPPRRA | 0.599 ± 0.02 |
| IRLYGQATFRWE | 0.625 ± 0.086 |
| QLETAIEEKNNE | 0.704 ± 0.0087 |
| GVEVAGCPGARG | 0.655 ± 0.042 |
| PPPPPTRPPTRV | 0.68 ± 0.079 |
| VVWVCVRLPVRR | 0.53046 ± 0.00025 |
| CKGIGRGGGVVS | 0.607 ± 0.051 |
| RRSENHTEHKGD | 0.712 ± 0.032 |
| PPLPSPPAPPAP | 0.655 ± 0.0086 |
| EGDIFSGFPSFQ | 0.741 ± 0.065 |
| FGLWSSCGWWWT | 0.64 ± 0.041 |
| SSNKSKNNHSNM | 0.688 ± 0.031 |
| RHRFDHWGPGPW | 0.72 ± 0.055 |
| FPTFSPRPHPLS | 0.72 ± 0.0098 |
| EGVKSGDGGAGG | 0.63832 ± 0.00019 |
| FPVSLSSVRMFV | 0.6254 ± 0.0032 |

| Sequence | protein stability index |
| --- | --- |
| TSRNFPGLHDNY | 0.673 ± 0.052 |
| PVLMTHPYFASS | 0.725 ± 0.0083 |
| YDLGHYFSIPRL | 0.747 ± 0.011 |
| PPCPFPTLPVTH | 0.73 ± 0.013 |
| PPCTSTTQRANP | 0.696 ± 0.073 |
| ALVPPDPTPPPP | 0.699 ± 0.047 |
| PPVSPPPSRHPL | 0.719 ± 0.04 |
| VYRRWIKGKGRV | 0.675 ± 0.026 |
| DIRVFFNSREGN | 0.742 ± 0.022 |
| CVLFYPLLLPGV | 0.599 ± 0.035 |
| PPPRLDTGAAQP | 0.665 ± 0.0097 |
| SRAARLPLFYFD | 0.675 ± 0.014 |
| FGPAQGYCLVGA | 0.544 ± 0.025 |
| SFARPNTRALPT | 0.656 ± 0.13 |
| LWRRPASSLLPI | 0.701 ± 0.018 |
| GLDDLMPGRVLW | 0.666 ± 0.015 |
| PRSPHPLPPTPP | 0.666 ± 0.0084 |
| EWNKMTKEKNVI | 0.686 ± 0.017 |
| IFYTHRSLSGNL | 0.659 ± 0.036 |
| PDVPVTCYAASH | 0.661 ± 0.067 |
| YKNRKYNGKIRI | 0.585 ± 0.18 |
| VLRVWGCGEVGV | 0.69 ± 0.019 |
| SAYASCFGSESL | 0.675 ± 0.05 |
| GRGGTYVVLWGV | 0.661 ± 0.1 |
| PSPPHPPPPSPY | 0.753 ± 0.097 |
| PQYGTNQGRWTG | 0.705 ± 0.055 |

| Sequence | protein stability index |
| --- | --- |
| LRGILGTLINGV | 0.609 ± 0.097 |
| KIGNDQNVEDRK | 0.756 ± 0.059 |
| YLFPFLCFSPPP | 0.702 ± 0.072 |
| VSSSSPSNFIPL | 0.666 ± 0.093 |
| LPLALSAPPAQP | 0.683 ± 0.042 |
| GGLGFVGGVRVQ | 0.6705 ± 0.00086 |
| GGVFTHLEKAVD | 0.649 ± 0.046 |
| GGSRGVGASEEC | 0.6515 ± 0.005 |
| VCSVLFPFLPLP | 0.7043 ± 0.0056 |
| GVGGCVMGVGRV | 0.64763 ± 0.00048 |
| GVGSTGAKTVRG | 0.693 ± 0.018 |
| IPFEPSGPFMRN | 0.7362 ± 0.007 |
| HKAPLLQLTADM | 0.662 ± 0.028 |
| AVGGWRAGGGGG | 0.731 ± 0.04 |
| DSSAFVPATILD | 0.705 ± 0.026 |
| ITGPPTGSPRYR | 0.588 ± 0.23 |
| VGGGGSLVVESG | 0.70581 ± 0.00064 |
| VFVGGGCRGFCL | 0.624 ± 0.075 |
| LGMGWGSGLERW | 0.826 ± 0.12 |
| DGVATLYGRDVE | 0.646 ± 0.033 |
| NLSLPSPPLTTN | 0.731 ± 0.0082 |
| FMDLVRSVPTGC | 0.706 ± 0.046 |
| RERNNISVKGKL | 0.679 ± 0.049 |
| LGSILSSSSSRL | 0.699 ± 0.018 |
| RQVSRLFQGKKN | 0.707 ± 0.03 |
| FYLMSDTNLPAL | 0.664 ± 0.021 |

| Sequence | protein stability index |
| --- | --- |
| PLPPASPCLCSY | 0.643 ± 0.049 |
| VEPLLGHPISRD | 0.702 ± 0.049 |
| VWLGTGGSYGFC | 0.825 ± 0.16 |
| GGGWSRRGVGDR | 0.673 ± 0.028 |
| LIPAASLSPLAC | 0.562 ± 0.013 |
| GGRLGRGVVRGW | 0.704 ± 0.011 |
| ACSPPPLLPPPL | 0.737 ± 0.016 |
| SRTSRGPPFSSS | 0.688 ± 0.043 |
| KKKKKKKKKNNK | 0.6851 ± 0.0035 |
| QLVCCAKCGAVG | 0.665 ± 0.035 |
| LHSRKSDFSVIA | 0.656 ± 0.046 |
| YFAQCLDFFSLV | 0.663 ± 0.019 |
| GRKKKINDDKKN | 0.688 ± 0.071 |
| PPLPPPLLPFSI | 0.747 ± 0.019 |
| GGVVGGRAGRGG | 0.617 ± 0.033 |
| FCGLWGVGGVAE | 0.704 ± 0.025 |
| DLMFSLFPLSFF | 0.704 ± 0.0076 |
| GELVVRVGEWGC | 0.7051 ± 0.0027 |
| VRERWNTKKKKK | 0.64 ± 0.057 |
| DWEPGGGGRMVG | 0.703 ± 0.081 |
| TGRWRWMRDLLS | 0.63 ± 0.032 |
| VLEAIIFRKHDN | 0.74 ± 0.14 |
| GLVRGGCGTVGG | 0.774 ± 0.18 |
| PQWVSIGSACCQ | 0.754 ± 0.076 |
| GEWRHVFSVTRC | 0.7475 ± 0.0025 |
| SGGADYMDPRLT | 0.714 ± 0.027 |

| Sequence | protein stability index |
| --- | --- |
| VVEGVFGQRFAG | 0.701 ± 0.033 |
| GVVGGWRGAGWR | 0.736 ± 0.064 |
| AFGFCKVLSSGC | 0.68 ± 0.013 |
| SPPLPSPPTLRL | 0.701 ± 0.015 |
| RTTDPHNRPIRP | 0.6552 ± 0.0047 |
| QGPPPTPASHGP | 0.672 ± 0.026 |
| PPHPVTLSPART | 0.614 ± 0.04 |
| VKGVGNTAGRGV | 0.659 ± 0.023 |
| PSPFFSRPSYLS | 0.718 ± 0.026 |
| RNERNAKAKNEK | 0.649 ± 0.012 |
| ANKIRMKYMRTG | 0.6139 ± 0.0027 |
| DSVSLPYVSRPL | 0.768 ± 0.041 |
| TPGMCDRQFGVD | 0.685 ± 0.028 |
| ALEFRDASLPVQ | 0.682 ± 0.068 |
| QREKTRSWDIET | 0.686 ± 0.041 |
| LLPFCPPCLRSL | 0.648 ± 0.018 |
| MSGRGPYPYSPL | 0.7465 ± 0.0034 |
| VEFWGAVCNDCL | 0.706 ± 0.043 |
| RTKIEIKNRENI | 0.774 ± 0.12 |
| GFGFMGLRFGVD | 0.762 ± 0.13 |
| ATPNRSKNKHDT | 0.679 ± 0.0011 |
| FRSHGHLSQNSY | 0.679 ± 0.044 |
| PPDLPTRSPDNP | 0.658 ± 0.04 |
| EGKGKGRGEVKE | 0.6733 ± 0.0064 |
| KIKTNLRQKTKN | 0.654 ± 0.016 |
| HGRGVEYGVCDN | 0.6776 ± 0.0066 |

| Sequence | protein stability index |
| --- | --- |
| DLGQVLSEASAS | 0.742 ± 0.034 |
| LLRWCFDLWWVL | 0.532 ± 0.051 |
| LGGWWVSRVGEP | 0.732 ± 0.037 |
| KHRGAQRSRARH | 0.645 ± 0.012 |
| PVPPPPPPPPPL | 0.667 ± 0.0059 |
| GCLPSGTPAWFG | 0.751 ± 0.052 |
| HGLDPRRGPSGA | 0.68426 ± 0.00044 |
| SLGRLKSLRSAR | 0.685 ± 0.017 |
| APRRSPGWGPEG | 0.731 ± 0.083 |
| GVFCHILAFLWC | 0.512 ± 0.019 |
| PPPPPFLPPPRL | 0.749 ± 0.011 |
| SPSLPPLPRSPR | 0.68 ± 0.053 |
| GKYQQGFQKVTR | 0.668 ± 0.025 |
| KGDKIEFVENKY | 0.641 ± 0.022 |
| RPTTPKCSSPKP | 0.753 ± 0.11 |
| SLQRLALLRGPP | 0.736 ± 0.05 |
| GGGGRGLLDVGV | 0.689 ± 0.031 |
| CVDTNIERSCVC | 0.66182 ± 0.00042 |
| VGGVWWGGWGHW | 0.733 ± 0.039 |
| KSIVAQGRLKPR | 0.685 ± 0.026 |
| VVMTAVEGMWDG | 0.5914 ± 0.0059 |
| RKQQGDNHKGRG | 0.706 ± 0.14 |
| KKKNKKKEKKKN | 0.714 ± 0.049 |
| SGHFGTATTLCF | 0.749 ± 0.011 |
| GCGFRGVYSCWV | 0.678 ± 0.078 |
| GCARLPALCCMF | 0.694 ± 0.039 |

| Sequence | protein stability index |
| --- | --- |
| WGYEGGWGGHGT | 0.659 ± 0.025 |
| ILLYSPFGPPSS | 0.673 ± 0.026 |
| KKKDKKVKRRKV | 0.769 ± 0.031 |
| PSCCPPATLPPP | 0.687 ± 0.056 |
| PSPPSPPPAPPP | 0.643 ± 0.1 |
| RGRGRVRPRRKR | 0.6831 ± 0.0011 |
| YVEVLLFTSVGF | 0.569 ± 0.07 |
| EREGREGKGRER | 0.777 ± 0.079 |
| RSSLSGLPPLPP | 0.721 ± 0.14 |
| KKTKKGINVEER | 0.662 ± 0.0097 |
| SGLPRLLLVILP | 0.6104 ± 0.0031 |
| GGGGGEWCLVRL | 0.688 ± 0.027 |
| WHRAGRSRMSWS | 0.777 ± 0.1 |
| PPILLPPPDASH | 0.702 ± 0.025 |
| GGGSHASERAAR | 0.723 ± 0.022 |
| GGVVRGVWVGRG | 0.725 ± 0.028 |
| CDFASTDSLLGG | 0.702 ± 0.013 |
| PPLPPAPTPALP | 0.684 ± 0.029 |
| AHVYGCGGGGMT | 0.734 ± 0.055 |
| CYVCVDVCKRGC | 0.535 ± 0.18 |
| IGTSGFFSSQAS | 0.743 ± 0.065 |
| GLCACTSFLVSW | 0.697 ± 0.028 |
| GSERGGRSRGRG | 0.665 ± 0.0059 |
| RRLVGEEGRTHV | 0.638 ± 0.05 |
| GGSRRGRRLLTQ | 0.699 ± 0.037 |
| GVFHAWAWCCGF | 0.78 ± 0.099 |

| Sequence | protein stability index |
| --- | --- |
| PPPAPPPPLRLL | 0.721 ± 0.046 |
| FLCILTNGCCYQ | 0.765 ± 0.052 |
| GCVGGWLGEGIG | 0.627 ± 0.035 |
| VNVCIAEYGNDR | 0.768 ± 0.062 |
| DGRYVDSEIDNP | 0.714 ± 0.059 |
| LPPASHLPYLVL | 0.717 ± 0.019 |
| DRREKAKNMTKG | 0.67 ± 0.025 |
| RQFRKKNTLKSE | 0.65 ± 0.1 |
| GGVGVGRGVCVF | 0.6187 ± 0.0012 |
| TYLCLLVRDNRG | 0.706 ± 0.012 |
| LFLFSSAGYPNS | 0.661 ± 0.1 |
| RVISIIREQEPV | 0.677 ± 0.034 |
| GHRAEGMWSGGL | 0.751 ± 0.098 |
| EKKKQKHKKKKN | 0.706 ± 0.031 |
| GRCFGGVVRGAL | 0.655 ± 0.051 |
| PPPLSPPLPFFV | 0.666 ± 0.036 |
| FRAAGFLAGRYR | 0.738 ± 0.039 |
| PPFPPAPPRGPA | 0.659 ± 0.043 |
| WVSFVFCSLLGG | 0.588 ± 0.018 |
| PSPAPFPSSPSL | 0.687 ± 0.0073 |
